Test results reported in PMC2120374 (The Journal of Cell Biology, 1995).

Molecular target: T1, Mas70p (S. cerevisiae (endogenous in yeast …, UniProt P07213 1-617))
T1 sequence (looked up): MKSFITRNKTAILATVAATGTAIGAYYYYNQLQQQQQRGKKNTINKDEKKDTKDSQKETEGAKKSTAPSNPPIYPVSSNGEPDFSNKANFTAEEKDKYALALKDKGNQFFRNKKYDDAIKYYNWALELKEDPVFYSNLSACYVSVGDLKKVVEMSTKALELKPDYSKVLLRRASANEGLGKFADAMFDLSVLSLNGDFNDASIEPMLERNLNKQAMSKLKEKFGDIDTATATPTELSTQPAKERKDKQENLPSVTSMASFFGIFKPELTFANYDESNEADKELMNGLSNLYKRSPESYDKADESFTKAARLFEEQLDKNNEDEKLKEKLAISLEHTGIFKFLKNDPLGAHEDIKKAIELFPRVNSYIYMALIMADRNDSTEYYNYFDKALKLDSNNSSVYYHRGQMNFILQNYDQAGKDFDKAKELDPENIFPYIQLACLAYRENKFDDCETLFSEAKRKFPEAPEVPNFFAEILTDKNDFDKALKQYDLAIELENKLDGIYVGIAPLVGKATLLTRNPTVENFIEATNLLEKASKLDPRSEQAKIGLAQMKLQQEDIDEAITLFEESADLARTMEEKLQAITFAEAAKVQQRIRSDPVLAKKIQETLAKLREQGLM
Assay: co-IP

stoichiometry N: 1 mol Mas37p per mol Mas70p
B1: Mas37p (natural protein)
chain: MVKGSVHLWGKDGKASLISVDSIALVWFIKLCTSEEAKSMVAGLQIVFSNNTDLSSDGKLPVLILDNGTKVSGYVNIVQFLHKNICTSKYEKGTDYEEDLAIVRKKDRLLEYSLLNYVDVEISRLTDYQLFLNTKNYNEYTKKLFSKLLYFPMWYNTPLQLRSQARENCEEIIGSLTLEDDEEFVESKAMESASQLAQSKTFKIAHKNKIKGKQELQQVKYNLQFDNRLQSCVSNWLAARKKLDDSVILSSDLLFLANLYVQLGLPDGNRIRSKLEQTFGSELLNSMSNKIDDFVHRPSNNLEQRDPQFREQGNVVMSLYNLACKYI
